What was measured:
[1] = biological target: T1, human αvβ6 on 293F:huβ6 cells (human, UniProt P06756 31-1048; P18564 22-788); experiment: saturation binding on 293F cells; AF647-labeled
T1 chain 1: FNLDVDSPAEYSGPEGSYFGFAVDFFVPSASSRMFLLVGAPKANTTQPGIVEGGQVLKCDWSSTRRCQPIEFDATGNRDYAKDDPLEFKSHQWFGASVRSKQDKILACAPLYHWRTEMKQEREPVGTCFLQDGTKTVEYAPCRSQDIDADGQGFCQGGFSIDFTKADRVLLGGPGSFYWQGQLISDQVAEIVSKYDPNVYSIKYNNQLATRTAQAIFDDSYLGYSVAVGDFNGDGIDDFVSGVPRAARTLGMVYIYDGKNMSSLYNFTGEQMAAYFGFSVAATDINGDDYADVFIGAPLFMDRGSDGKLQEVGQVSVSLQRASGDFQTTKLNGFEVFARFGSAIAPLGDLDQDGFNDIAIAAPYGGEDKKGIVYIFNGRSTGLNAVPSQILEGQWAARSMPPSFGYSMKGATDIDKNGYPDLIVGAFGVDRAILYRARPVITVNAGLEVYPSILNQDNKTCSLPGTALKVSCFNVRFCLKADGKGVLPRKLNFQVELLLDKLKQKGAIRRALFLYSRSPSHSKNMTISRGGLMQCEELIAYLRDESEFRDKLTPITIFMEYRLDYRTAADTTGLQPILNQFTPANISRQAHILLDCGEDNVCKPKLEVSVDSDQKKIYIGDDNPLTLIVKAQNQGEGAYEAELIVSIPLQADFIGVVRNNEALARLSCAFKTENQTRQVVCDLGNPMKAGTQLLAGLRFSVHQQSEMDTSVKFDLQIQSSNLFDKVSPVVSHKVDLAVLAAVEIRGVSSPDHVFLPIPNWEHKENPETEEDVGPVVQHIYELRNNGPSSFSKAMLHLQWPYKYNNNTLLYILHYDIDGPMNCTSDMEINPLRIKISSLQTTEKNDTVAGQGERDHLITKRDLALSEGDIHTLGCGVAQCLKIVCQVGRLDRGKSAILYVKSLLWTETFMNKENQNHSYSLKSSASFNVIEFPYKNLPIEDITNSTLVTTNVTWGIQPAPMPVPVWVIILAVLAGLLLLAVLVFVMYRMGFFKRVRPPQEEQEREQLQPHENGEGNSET
T1 chain 2: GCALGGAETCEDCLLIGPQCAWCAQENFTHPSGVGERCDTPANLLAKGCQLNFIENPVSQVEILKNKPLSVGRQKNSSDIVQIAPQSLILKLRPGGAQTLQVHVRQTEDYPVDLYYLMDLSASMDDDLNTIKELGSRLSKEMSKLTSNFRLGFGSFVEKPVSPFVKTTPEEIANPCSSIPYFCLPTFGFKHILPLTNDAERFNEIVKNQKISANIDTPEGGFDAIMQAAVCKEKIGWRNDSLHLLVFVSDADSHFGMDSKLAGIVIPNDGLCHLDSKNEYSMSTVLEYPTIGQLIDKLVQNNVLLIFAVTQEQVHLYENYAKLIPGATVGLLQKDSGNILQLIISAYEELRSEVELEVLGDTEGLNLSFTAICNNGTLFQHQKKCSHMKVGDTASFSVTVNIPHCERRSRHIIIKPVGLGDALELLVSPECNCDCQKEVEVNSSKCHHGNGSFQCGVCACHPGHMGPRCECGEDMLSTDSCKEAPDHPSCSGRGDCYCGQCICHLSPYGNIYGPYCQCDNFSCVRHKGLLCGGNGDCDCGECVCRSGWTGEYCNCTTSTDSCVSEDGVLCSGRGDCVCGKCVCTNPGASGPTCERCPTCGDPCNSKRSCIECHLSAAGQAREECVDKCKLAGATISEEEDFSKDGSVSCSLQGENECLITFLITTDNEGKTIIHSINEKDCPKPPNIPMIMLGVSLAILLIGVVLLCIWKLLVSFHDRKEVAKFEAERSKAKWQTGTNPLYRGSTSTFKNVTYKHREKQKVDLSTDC

[2] = biological target: T2, cyno αvβ6 on 293F:cynoβ6 cells (human;Macaca fascicularis, UniProt P06756 31-1048; A0A2K5TZ36 22-787); experiment: saturation binding on 293F cells; AF647-labeled
T2 chain 1: T1 chain 1
T2 chain 2: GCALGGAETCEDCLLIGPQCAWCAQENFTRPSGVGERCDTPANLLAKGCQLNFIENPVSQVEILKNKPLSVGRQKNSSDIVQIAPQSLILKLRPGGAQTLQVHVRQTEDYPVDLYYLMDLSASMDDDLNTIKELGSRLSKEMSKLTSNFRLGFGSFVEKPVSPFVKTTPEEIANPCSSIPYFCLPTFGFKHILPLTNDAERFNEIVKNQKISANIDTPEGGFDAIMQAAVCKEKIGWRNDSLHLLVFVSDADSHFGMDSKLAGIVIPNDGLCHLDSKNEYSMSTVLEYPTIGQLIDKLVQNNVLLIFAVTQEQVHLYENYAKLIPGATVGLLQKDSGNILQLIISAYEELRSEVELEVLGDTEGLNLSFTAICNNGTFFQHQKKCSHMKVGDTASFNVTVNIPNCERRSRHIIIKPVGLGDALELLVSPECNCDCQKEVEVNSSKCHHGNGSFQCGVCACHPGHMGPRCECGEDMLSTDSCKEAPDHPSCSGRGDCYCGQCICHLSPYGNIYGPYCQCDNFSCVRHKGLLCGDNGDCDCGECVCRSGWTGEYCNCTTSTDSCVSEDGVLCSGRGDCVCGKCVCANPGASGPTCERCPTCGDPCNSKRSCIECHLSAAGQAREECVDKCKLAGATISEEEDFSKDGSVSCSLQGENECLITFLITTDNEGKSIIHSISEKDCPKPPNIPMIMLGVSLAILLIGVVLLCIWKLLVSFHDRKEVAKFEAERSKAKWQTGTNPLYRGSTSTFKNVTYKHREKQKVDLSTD

[3] = biological target: T1, human αvβ6 on 293F:huβ6 cells; experiment: competition binding on 293F cells; 2nM m2A2-AF647 competitor

EC50 [1]: 0.3 nM | EC50 [2]: 0.2 nM | EC50 [3]: 1 nM
B1: h2A2 HCLG humanized antibody (antibody, human IgG1, kappa, V domains shown)
VH: QFQLVQSGAEVKKPGASVKVSCKASGYSFTDYNVNWVRQAPGQGLEWIGVINPKYGTTRYNQKFKGRATLTVDKSTSTAYMELSSLRSEDTAVYYCTRGLNAWDYWGQGTLVTVSS
VL: DIQMTQSPSSLSASVGDRVTITCGASENIYGALNWYQQKPGKAPKLLIYGATNLEDGVPSRFSGSGSGRDYTFTISSLQPEDIATYYCQNVLTTPYTFGQGTKLEIKR
notes: Labelled with AlexaFluor-647 in the saturation assay; also called humanized 2A2 HCLG

From patent publication US20250242041A1 (Seagen, published 2025)
